# Assay: soluble on expression in E. coli; label from the status in PepcDB or PDB records
row,Sequence,soluble on expression in E. coli
1,MVEVKNLVAITGPKMPYELARLLKISHARATRLAAAANAQNPTPSRARTSDAQAQQPAAASPKPPAEPVAAEPKKKRAKKATPVEAGLPPLTGKITGGHACAFDVVGESYYQPALRRLRNGRHMATDNDFVADIVAEPDNPHDPNACAVYIEGFKVGYLPRDAAADFQQQVADMGVTGTWRLQTKAKLSGGWGDRPMVGVLLSLPKSLEHHHHHH,soluble
2,MVFFSVVVPTYNRRPILEKCLRALEQQQISAETAIAGYEVVVVDDGSTDGTVDWLKAQASEFPHVRLFEQDHQGPARARNLGVQQAQGDTIIFIDSDLVVTPPFLQAHATGLEKGRQRLGSDRCFTYGAVINTCNFDNPTAEPFKVTDFSNAYFATGNVAIARHWLETAGLFDTAFQLYGWEDLELGVRLKNLGLKLIRCPEAVGYHWHPPFSLEQIPKLIDQESQRGRMGVLFYQKHPTWEVRLMIQMTWLHRLLWGTLSLGGFLNERTLRPLLAWLLKRDRPQLALEIARIFLNWNNVRSVYAAYRESQGLASSLEHHHHHH,soluble
3,MVFNFLIVSDEVEDFRREIAIDSEATFLDLQNAILDSVGYSHSELTSFFLCDEDWHKGQEITLMEMDTASDEDSYVMENTRLEEFIEDEHQRLVFEFDLMTERYFFIEVMDIVPGKSLSEPKLLTSEGLPPQQSSLDDLMDPTAIPTKQARGLDLEEDFFGDSEYNEDEIDREGFEGFDEITSDLSDNY,not soluble
4,MVGFLKHLVPKRFRKKELVIPVVRMQGAIMAGGNQFRPALNLASYAPLLEKAFAVKDAPAVAISLNSPGGSPVQARMIYNRIRQLAEEKDKKVLIFVEDVAASGGYMIALAGDEIIADPTSIVGSIGVVSGGFGFPEMLRKIGVERRVYTAGENKVILDPFQPEKEGDIDYLKSLQVEIHNVFIDMVKMRRGSKLKGDDALFSGLFWTGMRGLDLGLIDGLGDMREVLRRRYGTKVKLQLISGGRSLFGKKVPGVNMALGLNAERLAAGAVSGLAEVAEEKALWSRFGLLEHHHHHH,soluble
5,MVGNTFGRIFRVTTCGESYAGAFRKNLQIPKELFGGLIAIVDGVPPGIKLTADFVQEELDKRRPGKTPLDTPRKERDKVYIFSGVMEDDITTGAPVGMIIPNDVIEDEHINKHKSYKEVVRPGQAGYTFFKKYGQFADNIGAGRASGRETAARVAAGAVAKAVLDTMGIDVIAFVTEIHGIKAQENITYEMAKANYRKNEINCPDLEKAKEMIEELKRIKEEGDSVGGVVEIIARGVPAGLGEPVFDKLQATLAHALMSIGAIKGIEFGEGFGHTKLKGSESNDVPYYDEASGRVRFKTNRAGGILGGISNGEDIRIRVAVKPTPTISIPQKTVNMYTLENVEVEFNTRNDPSICPRIYPVCEAMVRIALLDALYIAKGYRAISSNIDPRWDRL,not soluble
6,MVHAFLIHTLRAPNTEDTGLCRVLYSCVFGAEKSPDDPRPHGAERDRLLRKEQILAVARQVESMCRLQQQASGRPPMDLQPQSSDEQVPLHEAPRGAFRLAAENPFQEPRTVVWLGVLSLGFALVLDAHENLLLAEGTLRLLTRLLLDHLRLLAPSTSLLLRADRIEGILTRFLPHGQLLFLNDQFVQGLEKEFSAAWPR,not soluble
7,MVHLAKYIVVTGGVVSSIGKGITAASIGRILRSYGLSVTAIKIDPYLNWDSGTLNPYQHGEVFVTDDGMETDLDLGHYERFLDSDLPGEANITTGKVYMSVINKERSGDYLGSCVQIIPHITDEIKSMIRKIADKSGAEVVLVEVGGTVGDIEGQPFLEALRQLRNEEGHENVMFVHVTYVPYLRAAGEFKTKPTQHSTKELRSTGINPDMIICRSEMPIDSSLKRKIAHFCDVEEEAVVNAPDASSIYEVPLVLDSERVGDYIVRRIELDVDGEADLSEWAGIVESLMIDEPVVTVGIVGKYVELEDSYISIREALKHAAAHLRVRVDIEWISADDAVNEEDLSRLDSILIPGGFGERGIAGKLEAVRFALENRVPIFGICLGMQCMVIEFARLNGMEGANSTEFDPETPYPVIDMMEEQKRIKNMGGTMRLGSYQCRIREGTLAHEAYGTELVGERHRHRFELNNEFREELESKGLIISGTSPDDFLVEMVEIKDHPWFLGCQFHPEFRSRPNRAHPLFVSFLRAALERSR,soluble
8,MVHYKLTYFNGRGAGECARQVFALADQKYEDVRLTQETFVPLKATFPFGQVPVLEVDGQQLAQSQAICRYLAKTFGFAGATPFESALIDSLADAYTDYRAEMKTYYYTALGFMTGDVDKPKTDVLLPARTKFLGFITKFLKKNSSGFLVGDKISWVDLLVAEHVADMTNRVPEYIEGFPEVKAHMERIQQTPRIKKWIETRPETPF,soluble

# Reference: the DeepSol protein solubility set
